Data on one substance can be found in PMC6395731.

Test in all cases: EMSA
Data set [1] relates to XRCC1 219-415 (CDB) (Homo sapiens). To be noted: EMSA: 5 nM DNA, 12 mM Tris pH 8.0, 100 mM NaCl, 20 mM KCl, 3 mM MgCl2, 1 mM EDTA, 0.1% CHAPS, 10 mM 2-mercaptoethanol, 8.5% glycerol, BSA (0.02 mg/mL), room ….
The subject of data set [2] is XRCC1 219-633 (Homo sapiens). To be noted: EMSA: 5 nM DNA, 12 mM Tris pH 8.0, 100 mM NaCl, 20 mM KCl, 3 mM MgCl2, 1 mM EDTA, 0.1% CHAPS, 10 mM 2-mercaptoethanol, 8.5% glycerol, BSA (0.02 mg/mL), room ….
Data set [3] has as its system XRCC1 219-633 P1/3-YFP-NLS (Homo sapiens). The conditions noted are these: 2 uM protein; EMSA: 5 nM DNA, 12 mM Tris pH 8.0, 100 mM NaCl, 20 mM KCl, 3 mM MgCl2, 1 mM EDTA, 0.1% CHAPS, 10 mM 2-mercaptoethanol, 8.5% glycerol, BSA (0.02 mg/mL), room ….
The subject of data set [4] is XRCC1 full length (Homo sapiens). The conditions noted are these: EMSA: 5 nM DNA, 12 mM Tris pH 8.0, 100 mM NaCl, 20 mM KCl, 3 mM MgCl2, 1 mM EDTA, 0.1% CHAPS, 10 mM 2-mercaptoethanol, 8.5% glycerol, BSA (0.02 mg/mL), room ….

In the case of 39 bp duplex, the Kd in data set [1] was 670 nM; in data set [2] it was 700 nM; in data set [4] it was 620 nM. Also, the binding signal (% of wild type) in data set [3] is 6.
